This is an account of results in patent US20120107323A1, “KINASE PROTEIN BINDING INHIBITORS” (University of Florida, priority 2009, published 2012).

The test has as its target IGF-1R of the transfected cells of Example 10 (confocal microscopy) (Homo sapiens (Human)) (UniProt P08069). Briefly: confocal microscopy, colocalization in cells transfected in the presence of the small molecule NSC 250435.

For GFP-fused FAK-NT2 (a.a. 127-243), the percentage of interaction is 30%.
